The target of this assay is mRFP1-Rac1 (wild type) (human), P63000. The assay can be described thus: FRET or BRET. The conditions noted are these: remark: other sources report otherwise.

Average FRET efficiency E% data for 1 molecule are collected here from PMC3917506.

B1: Teal-N-WASP, O00401 1-505 (natural protein)
chain: MSSVQQQPPPPRRVTNVGSLLLTPQENESLFTFLGKKCVTMSSAVVQLYAADRNCMWSKKCSGVACLVKDNPQRSYFLRIFDIKDGKLLWEQELYNNFVYNSPRGYFHTFAGDTCQVALNFANEEEAKKFRKAVTDLLGRRQRKSEKRRDPPNGPNLPMATVDIKNPEITTNRFYGPQVNNISHTKEKKKGKAKKKRLTKADIGTPSNFQHIGHVGWDPNTGFDLNNLDPELKNLFDMCGISEAQLKDRETSKVIYDFIEKTGGVEAVKNELRRQAPPPPPPSRGGPPPPPPPPHNSGPPPPPARGRGAPPPPPSRAPTAAPPPPPPSRPSVAVPPPPPNRMYPPPPPALPSSAPSGPPPPPPSVLGVGPVAPPPPPPPPPPPGPPPPPGLPSDGDHQVPTTAGNKAALLDQIREGAQLKKVEQNSRPVSCSGRDALLDQIRQGIQLKSVADGQESTPPTPAPTSGIVGALMEVMQKRSKAIHSSDEDEDEDDEEDFEDDDEWED
As for B1, the average FRET efficiency E% amounted to 14%.
